For experiment [1], the target named is T1, plasma-derived human FVII (Enzyme Research Labs) (human, UniProt P08709 61-466).
T1 construct: mature; also called pdFVII; Standard FVII
T1 sequence (looked up): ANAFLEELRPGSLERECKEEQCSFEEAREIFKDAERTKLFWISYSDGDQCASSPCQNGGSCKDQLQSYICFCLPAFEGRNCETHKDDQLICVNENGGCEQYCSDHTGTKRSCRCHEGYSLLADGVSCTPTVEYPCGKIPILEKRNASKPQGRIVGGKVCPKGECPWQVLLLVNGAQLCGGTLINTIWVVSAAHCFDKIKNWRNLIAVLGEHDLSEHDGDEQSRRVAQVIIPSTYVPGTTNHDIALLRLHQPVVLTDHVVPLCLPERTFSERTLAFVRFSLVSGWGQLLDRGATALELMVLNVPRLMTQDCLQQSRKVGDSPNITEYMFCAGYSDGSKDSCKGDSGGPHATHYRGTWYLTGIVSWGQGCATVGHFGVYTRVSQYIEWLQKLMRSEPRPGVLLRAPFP
The experiment can be described thus: surface plasmon resonance (BIAcore); sTF captured by immobilized anti-TF antibody, FVII injected. The source says: An anti-TF antibody was immobilized on the BIAcore flow cell at high density and subsequently reacted with recombinant sTF. […] Data from reference cells containing the same amount of anti-TF antibody but no sTF were subtracted to correct for non-specific binding. […]
In general terms: Surface plasmon resonance follows binding to a sensor surface in real time, without labels.

Experiment [2] deals with T2, monoclonal antibody 231-7.
T2 construct: Conformation-sensitive antibody to the FVII EGF-1 domain; also called MoAb231-7
The experiment can be described thus: competitive ELISA; rFVIIa competes with biotinylated plasma-derived FVII for adsorbed MoAb 231-7. The protocol: Following four washes with TBS-T w/o BSA containing 1 M NaCl, 100 μl streptavidin-alkaline phosphatase (1:25,000 dilution in TBS-T+BSA) was added for 1 hr, RT. After an additional four washes with TBS-T w/o BSA containing 1M NaCl, the colourimetric reaction was developed with 100 μl of 1 mg/ml p-nitrophenylphosphate in diethanolamine buffer (10% diethanolamine, 0.5 mM MgCl₂, pH 9.8). The reaction was stopped after 60 minutes by the addition of 25 μl of 0.5M EDTA to each well.

B1: recombinant soluble human tissue factor (receptor, UniProt P13726 33-251, looked up)
chain: SGTTNTVAAYNLTWKSTNFKTILEWEPKPVNQVYTVQISTKSGDWKSKCFYTTDTECDLTDEIVKDVKQTYLARVFSYPAGNVESTGSAGEPLYENSPEFTPYLETNLGQPTIQSFEQVGTKVNVTVEDERTLVRRNNTFLSLRDVFGKDLIYTLYYWKSSSSGKKTAKTNTNEFLIDVDKGENYCFSVQAVIPSRTVNRKSTDSPVECMGQEKGEFRE
notes: extracellular domain; It was captured on the BIAcore chip by an immobilized anti-TF antibody; also called sTF; soluble human TF
A word on the Kd: it is the concentration at which binding is half-saturated. Low values mean higher affinity, high ones lower affinity. Molecule B1 displayed a Kd in experiment [1] of 29 nM.

B2: rFVIIa(wt)-FFR (enzyme, human)
chain 1: ANAFLEELRPGSLERECKEEQCSFEEAREIFKDAERTKLFWISYSDGDQCASSPCQNGGSCKDQLQSYICFCLPAFEGRNCETHKDDQLICVNENGGCEQYCSDHTGTKRSCRCHEGYSLLADGVSCTPTVEYPCGKIPILEKRNASKPQGR
chain 2: IVGGKVCPKGECPWQVLLLVNGAQLCGGTLINTIWVVSAAHCFDKIKNWRNLIAVLGEHDLSEHDGDEQSRRVAQVIIPSTYVPGTTNHDIALLRLHQPVVLTDHVVPLCLPERTFSERTLAFVRFSLVSGWGQLLDRGATALELMVLNVPRLMTQDCLQQSRKVGDSPNITEYMFCAGYSDGSKDSCKGDSGGPHATHYRGTWYLTGIVSWGQGCATVGHFGVYTRVSQYIEWLQKLMRSEPRPGVLLRAPFP
modifications: active site covalently modified with the peptide chloromethylketone FFRck
notes: range 1-152;range 153-406; also called rFVIIa(wt)-FFRck; rFVIIai(wt)
On to B2, for which the “Relative Increase in Affinity (relative to rFVIIa (wt))” value in experiment [2] came to 1.4 fold.

B3: rFVIIa(wt)-DEGR (enzyme, human)
chain 1: B2 chain 1
chain 2: B2 chain 2
modifications: active site covalently modified with the peptide chloromethylketone DEGRck
notes: range 1-152;range 153-406; also called rFVIIa(wt)-DEGRck; rFVIIai(wt)
On to B3, for which the “Relative Increase in Affinity (relative to rFVIIa (wt))” value in experiment [2] turned out to be 2.8 fold.
